Laboratory results reported in patent US20040162238A1.
Where two headings read alike, the source gives them in different places.

Columns and labels:
Test in all cases: cell-based or functional assay
[1] = target: GPCR73a receptor (Homo sapiens (Human)) (UniProt Q8TCW9)
[2] = target: Zven1 receptor on Wky12-22 cells (rat)
[3] = target: GPCR73b receptor (Homo sapiens (Human)) (UniProt Q8NFJ6)
[4] = target: GPCR73a receptor (Homo sapiens (Human)) (UniProt Q8TCW9); remark: listed apart in the source
[5] = target: GPCR73b receptor (Homo sapiens (Human)) (UniProt Q8NFJ6); remark: listed apart in the source

GPCR73a receptor (Homo sapiens (Human)), sequence (Q8TCW9 whole entry): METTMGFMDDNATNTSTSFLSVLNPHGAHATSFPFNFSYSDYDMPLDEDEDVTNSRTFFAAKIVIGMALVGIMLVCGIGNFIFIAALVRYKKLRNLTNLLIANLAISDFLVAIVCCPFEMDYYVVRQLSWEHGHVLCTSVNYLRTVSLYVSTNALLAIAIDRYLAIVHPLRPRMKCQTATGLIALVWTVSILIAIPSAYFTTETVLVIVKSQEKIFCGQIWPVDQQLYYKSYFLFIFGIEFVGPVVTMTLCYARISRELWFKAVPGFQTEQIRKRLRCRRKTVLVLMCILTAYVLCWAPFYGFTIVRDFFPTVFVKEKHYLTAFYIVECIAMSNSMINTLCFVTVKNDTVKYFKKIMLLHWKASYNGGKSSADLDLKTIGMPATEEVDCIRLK
GPCR73b receptor (Homo sapiens (Human)), sequence (Q8NFJ6 whole entry): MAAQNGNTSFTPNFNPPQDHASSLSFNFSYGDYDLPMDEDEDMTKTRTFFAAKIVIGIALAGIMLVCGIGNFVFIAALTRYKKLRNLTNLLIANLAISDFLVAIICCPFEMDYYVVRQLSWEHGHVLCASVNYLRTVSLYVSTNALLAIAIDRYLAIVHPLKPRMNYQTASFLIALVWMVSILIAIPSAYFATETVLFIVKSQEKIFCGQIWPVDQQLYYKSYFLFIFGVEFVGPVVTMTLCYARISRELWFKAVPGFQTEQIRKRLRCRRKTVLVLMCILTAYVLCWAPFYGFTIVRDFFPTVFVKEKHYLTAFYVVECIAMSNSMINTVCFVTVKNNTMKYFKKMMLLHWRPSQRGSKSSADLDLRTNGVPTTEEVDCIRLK

B1: Zven1 protein produced in baculovirus with a C-terminal Glu-Glu tag (ligand)
chain: AVITGACDKDSQCGGGMCCAVSIWVKSIRICTPMGKLGDSCHPLTRKVPFFGRRMHHTCPCLPGLACLRTSFNRFICLAQKGLEYMPMD
B1 was tested, and the SRE luciferase fold-induction at 1 ng/ml, Zven1 heated at 56 C for 30 minutes, Rat2 cells with GPCR73a (fold-induction) [1] was 1.8, the SRE luciferase fold-induction at 1 ng/ml, fresh Zven1, Rat2 cells with GPCR73a (fold-induction) [1] was 2.5 and the SRE luciferase fold-induction at 3.2 ng/ml, Zven1 heated at 56 C for 30 minutes, Rat2 cells with GPCR73a (fold-induction) [1] was 3.7. For the same binder, the SRE luciferase fold-induction at 3.2 ng/ml, fresh Zven1, Rat2 cells with GPCR73a (fold-induction) [1] was 7.1, the SRE luciferase fold-induction at 10 ng/ml, Zven1 heated at 56 C for 30 minutes, Rat2 cells with GPCR73a (fold-induction) [1] was 10 and the SRE luciferase fold-induction at 10 ng/ml, fresh Zven1, Rat2 cells with GPCR73a (fold-induction) [1] was 13.1. It also gave an SRE luciferase fold-induction at 32 ng/ml, Zven1 heated at 56 C for 30 minutes, Rat2 cells with GPCR73a (fold-induction) [1] of 14.8, an SRE luciferase fold-induction at 32 ng/ml, fresh Zven1, Rat2 cells with GPCR73a (fold-induction) [1] of 18.7 and an SRE luciferase fold-induction at 100 ng/ml, Zven1 heated at 56 C for 30 minutes, Rat2 cells with GPCR73a (fold-induction) [1] of 18.6. The SRE luciferase fold-induction at 100 ng/ml, fresh Zven1, Rat2 cells with GPCR73a (fold-induction) [1] was 20.5 and the ERK-Map kinase activity EC50 in Wky12-22 cells (Arrayscan) [2] was 500 pM.

B2: Zven2 ("endocrine-gland-derived vascular endothelial growth factor") protein purchased from Peprotech, Inc. (ligand)
chain: AVITGACERDVQCGAGTCCAISLWLRGLRMCTPLGREGEECHPGSHKVPFFRKRKHHTCPCLPNLLCSRFPDGRYRCSMDLKNINF
Binder B2 has an SRE luciferase fold-induction at 3.2 ng/ml, Rat2 cells with GPCR73b (fold-induction) [3] of 1.4, an SRE luciferase fold-induction at 32 ng/ml, Rat2 cells with GPCR73b (fold-induction) [3] of 2.7 and an SRE luciferase fold-induction at 100 ng/ml, Rat2 cells with GPCR73b (fold-induction) [3] of 4.1. For the same binder, the SRE luciferase fold-induction at 320 ng/ml, Rat2 cells with GPCR73b (fold-induction) [3] was 5.8, the SRE luciferase fold-induction at 1000 ng/ml, Rat2 cells with GPCR73b (fold-induction) [3] was 6.1 and the SRE luciferase fold-induction at 1 ng/ml, Rat2 cells with GPCR73a (fold-induction) [4] was 0.95. The SRE luciferase fold-induction at 3.2 ng/ml, Rat2 cells with GPCR73a (fold-induction) [4] was 1.3, the SRE luciferase fold-induction at 10 ng/ml, Rat2 cells with GPCR73a (fold-induction) [4] was 2.6 and the SRE luciferase fold-induction at 32 ng/ml, Rat2 cells with GPCR73a (fold-induction) [4] was 7.2. It also gave an SRE luciferase fold-induction at 320 ng/ml, Rat2 cells with GPCR73a (fold-induction) [4] of 20.5, an SRE luciferase fold-induction at 1000 ng/ml, Rat2 cells with GPCR73a (fold-induction) [4] of 15 and an SRE luciferase fold-induction at 1 ng/ml, Rat2 cells with GPCR73b (fold-induction) [5] of 1.1. It also gave an SRE luciferase fold-induction at 3.2 ng/ml, Rat2 cells with GPCR73b (fold-induction) [5] of 1.3, an SRE luciferase fold-induction at 10 ng/ml, Rat2 cells with GPCR73b (fold-induction) [5] of 1.8 and an SRE luciferase fold-induction at 32 ng/ml, Rat2 cells with GPCR73b (fold-induction) [5] of 2.8. The SRE luciferase fold-induction at 100 ng/ml, Rat2 cells with GPCR73b (fold-induction) [5] was 5.6, the SRE luciferase fold-induction at 320 ng/ml, Rat2 cells with GPCR73b (fold-induction) [5] was 8.3 and the SRE luciferase fold-induction at 1000 ng/ml, Rat2 cells with GPCR73b (fold-induction) [5] was 8.4. For the same binder, the SRE luciferase fold-induction at 1 ng/ml, Rat2 cells with GPCR73a (fold-induction) [1] was 1.2, the SRE luciferase fold-induction at 3.2 ng/ml, Rat2 cells with GPCR73a (fold-induction) [1] was 1.6 and the SRE luciferase fold-induction at 10 ng/ml, Rat2 cells with GPCR73a (fold-induction) [1] was 2.5. The SRE luciferase fold-induction at 32 ng/ml, Rat2 cells with GPCR73a (fold-induction) [1] was 5.8, the SRE luciferase fold-induction at 100 ng/ml, Rat2 cells with GPCR73a (fold-induction) [1] was 11.4 and the SRE luciferase fold-induction at 320 ng/ml, Rat2 cells with GPCR73a (fold-induction) [1] was 24.4. It also gave an SRE luciferase fold-induction at 1000 ng/ml, Rat2 cells with GPCR73a (fold-induction) [1] of 20.
